Consider two proteins from article PMC10980208, “A novel micellular fluorogenic substrate for quantitating the activity of 1-phosphatidylinositol 4,5-bisphosphate phosphodiesterase gamma (PLCγ) enzymes” (PLOS ONE, 2024).

Substrate in this data set: CCCCCCCCCCCCCCCCOc1cc(COC(=O)Nc2ccc3c(C(F)(F)F)cc(=O)oc3c2)ccc1OP(=O)(O)O[C@@H]1[C@H](O)[C@H](O)[C@@H](OP(=O)(O)O)[C@H](OP(=O)(O)O)[C@H]1O
The experiment in a line: purified protein. Conditions: Ca2+.

B1: PLCγ2 (Homo sapiens) (protein)
chain: MSTTVNVDSLAEYEKSQIKRALELGTVMTVFSFRKSTPERRTVQVIMETRQVAWSKTADKIEGFLDIMEIKEIRPGKNSKDFERAKAVRQKEDCCFTILYGTQFVLSTLSLAADSKEDAVNWLSGLKILHQEAMNASTPTIIESWLRKQIYSVDQTRRNSISLRELKTILPLINFKVSSAKFLKDKFVEIGAHKDELSFEQFHLFYKKLMFEQQKSILDEFKKDSSVFILGNTDRPDASAVYLHDFQRFLIHEQQEHWAQDLNKVRERMTKFIDDTMRETAEPFLFVDEFLTYLFSRENSIWDEKYDAVDMQDMNNPLSHYWISSSHNTYLTGDQLRSESSPEAYIRCLRMGCRCIELDCWDGPDGKPVIYHGWTRTTKIKFDDVVQAIKDHAFVTSSFPVILSIEEHCSVEQQRHMAKAFKEVFGDLLLTKPTEASADQLPSPSQLREKIIIKHKKLGPRGDVDVNMEDKKDEHKQQGELYMWDSIDQKWTRHYCAIADAKLSFSDDIEQTMEEEVPQDIPPTELHFGEKWFHKKVEKRTSAEKLLQEYCMETGGKDGTFLVRESETFPNDYTLSFWRSGRVQHCRIRSTMEGGTLKYYLTDNLTFSSIYALIQHYRETHLRCAEFELRLTDPVPNPNPHESKPWYYDSLSRGEAEDMLMRIPRDGAFLIRKREGSDSYAITFRARGKVKHCRINRDGRHFVLGTSAYFESLVELVSYYEKHSLYRKMRLRYPVTPELLERYNMERDINSLYDVSRMYVDPSEINPSMPQRTVKALYDYKAKRSDELSFCRGALIHNVSKEPGGWWKGDYGTRIQQYFPSNYVEDISTADFEELEKQIIEDNPLGSLCRGILDLNTYNVVKAPQGKNQKSFVFILEPKQQGDPPVEFATDRVEELFEWFQSIREITWKIDTKENNMKYWEKNQSIAIELSDLVVYCKPTSKTKDNLENPDFREIRSFVETKADSIIRQKPVDLLKYNQKGLTRVYPKGQRVDSSNYDPFRLWLCGSQMVALNFQTADKYMQMNHALFSLNGRTGYVLQPESMRTEKYDPMPPESQRKILMTLTVKVLGARHLPKLGRSIACPFVEVEICGAEYDNNKFKTTVVNDNGLSPIWAPTQEKVTFEIYDPNLAFLRFVVYEEDMFSDPNFLAHATYPIKAVKSGFRSVPLKNGYSEDIELASLLVFCEMRPVLESEEELYSSCRQLRRRQEELNNQLFLYDTHQNLRNANRDALVKEFSVNENQLQLYQEKCNKRLREKRVSNSKFYS
One may read the Km as the concentration of substrate that gives half-maximal velocity. As usually defined, the Vmax is the top rate of the reaction or transport when substrate is in excess. A word on the kcat: it is the number of substrate molecules converted per active site and unit of time at saturation. By kcat/Km is commonly meant the second-order rate constant that governs catalysis at low substrate concentration. Consider B1, for which the Km is 4.6 ± 0.8 µM, the Vmax was determined as 0.019 µmol/min/mg, the kcat came to 0.045 ± 0.00333 s⁻¹ and the kcat/Km turned out to be 10000 ± 1670 M⁻¹ s⁻¹.

B2: PLCγ1 (Homo sapiens) (protein)
chain: AGAASPCANGCGPGAPSDAEVLHLCRSLEVGTVMTLFYSKKSQRPERKTFQVKLETRQITWSRGADKIEGAIDIREIKEIRPGKTSRDFDRYQEDPAFRPDQSHCFVILYGMEFRLKTLSLQATSEDEVNMWIKGLTWLMEDTLQAPTPLQIERWLRKQFYSVDRNREDRISAKDLKNMLSQVNYRVPNMRFLRERLTDLEQRSGDITYGQFAQLYRSLMYSAQKTMDLPFLEASTLRAGERPELCRVSLPEFQQFLLDYQGELWAVDRLQVQEFMLSFLRDPLREIEEPYFFLDEFVTFLFSKENSVWNSQLDAVCPDTMNNPLSHYWISSSHNTYLTGDQFSSESSLEAYARCLRMGCRCIELDCWDGPDGMPVIYHGHTLTTKIKFSDVLHTIKEHAFVASEYPVILSIEDHCSIAQQRNMAQYFKKVLGDTLLTKPVEISADGLPSPNQLKRKILIKHKKLAEGSAYEEVPTSMMYSENDISNSIKNGILYLEDPVNHEWYPHYFVLTSSKIYYSEETSSDQGNEDEEEPKEVSSSTELHSNEKWFHGKLGAGRDGRHIAERLLTEYCIETGAPDGSFLVRESETFVGDYTLSFWRNGKVQHCRIHSRQDAGTPKFFLTDNLVFDSLYDLITHYQQVPLRCNEFEMRLSEPVPQTNAHESKEWYHASLTRAQAEHMLMRVPRDGAFLVRKRNEPNSYAISFRAEGKIKHCRVQQEGQTVMLGNSEFDSLVDLISYYEKHPLYRKMKLRYPINEEALEKIGTAEPDYGALYEGRNPGFYVEANPMPTFKCAVKALFDYKAQREDELTFIKSAIIQNVEKQEGGWWRGDYGGKKQLWFPSNYVEEMVNPVALEPEREHLDENSPLGDLLRGVLDVPACQIAIRPEGKNNRLFVFSISMASVAHWSLDVAADSQEELQDWVKKIREVAQTADARLTEGKIMERRKKIALELSELVVYCRPVPFDEEKIGTERACYRDMSSFPETKAEKYVNKAKGKKFLQYNRLQLSRIYPKGQRLDSSNYDPLPMWICGSQLVALNFQTPDKPMQMNQALFMTGRHCGYVLQPSTMRDEAFDPFDKSSLRGLEPCAISIEVLGARHLPKNGRGIVCPFVEIEVAGAEYDSTKQKTEFVVDNGLNPVWPAKPFHFQISNPEFAFLRFVVYEEDMFSDQNFLAQATFPVKGLKTGYRAVPLKNNYSEDLELASLLIKIDIFPAKENGDLSPFSGTSLRERGSDASGQLFHGRAREGSFESRYQQPFEDFRISQEHLADHFDSRERRAPRRTRVNGDNRL
Consider B2, for which the Km amounted to 27.7 ± 14.5 µM, the Vmax stood at 0.35 µmol/min/mg, the kcat is 0.833 ± 0.367 s⁻¹ and the kcat/Km worked out at 32700 ± 6670 M⁻¹ s⁻¹.
